PMC8580805 (Biophysical Reviews, 2021)
Several values for one entry are separate records, joined by “and”; a condition that tells them apart may be missing. Identical values can stand only once. One block for each molecule: values may come before it.

B3: photosynthetic GAPDH B-subunit from spinach (natural protein, UniProt P12860 84-451, looked up)
chain: KLKVAINGFGRIGRNFLRCWHGRKDSPLDVVVVNDSGGVKSATHLLKYDSILGTFKADVKIIDNETFSIDGKPIKVVSNRDPLKLPWAELGIDIVIEGTGVFVDGPGAGKHIQAGAKKVIITAPAKGSDIPTYVVGVNEKDYGHDVANIISNASCTTNCLAPFVKVLDEELGIVKGTMTTTHSYTGDQRLLDASHRDLRRARAAALNIVPTSTGAAKAVSLVLPQLKGKLNGIALRVPTPNVSVVDLVVNIEKVGVTAEDVNNAFRKAAAGPLKGVLDVCDIPLVSVDFRCSDFSSTIDSSLTMVMGGDMVKVVAWYDNEWGYSQRVVDLADLVANKWPGLEGSVASGDPLEDFCKDNPADEECKLYE

Columns and labels:
[1] = target: insect Toll receptor ectodomain (insect (species not stated)) (UniProt P08953); assay: biophysical and cellular analysis
Sequence of insect Toll receptor ectodomain (insect (species not stated)) (P08953 28-807): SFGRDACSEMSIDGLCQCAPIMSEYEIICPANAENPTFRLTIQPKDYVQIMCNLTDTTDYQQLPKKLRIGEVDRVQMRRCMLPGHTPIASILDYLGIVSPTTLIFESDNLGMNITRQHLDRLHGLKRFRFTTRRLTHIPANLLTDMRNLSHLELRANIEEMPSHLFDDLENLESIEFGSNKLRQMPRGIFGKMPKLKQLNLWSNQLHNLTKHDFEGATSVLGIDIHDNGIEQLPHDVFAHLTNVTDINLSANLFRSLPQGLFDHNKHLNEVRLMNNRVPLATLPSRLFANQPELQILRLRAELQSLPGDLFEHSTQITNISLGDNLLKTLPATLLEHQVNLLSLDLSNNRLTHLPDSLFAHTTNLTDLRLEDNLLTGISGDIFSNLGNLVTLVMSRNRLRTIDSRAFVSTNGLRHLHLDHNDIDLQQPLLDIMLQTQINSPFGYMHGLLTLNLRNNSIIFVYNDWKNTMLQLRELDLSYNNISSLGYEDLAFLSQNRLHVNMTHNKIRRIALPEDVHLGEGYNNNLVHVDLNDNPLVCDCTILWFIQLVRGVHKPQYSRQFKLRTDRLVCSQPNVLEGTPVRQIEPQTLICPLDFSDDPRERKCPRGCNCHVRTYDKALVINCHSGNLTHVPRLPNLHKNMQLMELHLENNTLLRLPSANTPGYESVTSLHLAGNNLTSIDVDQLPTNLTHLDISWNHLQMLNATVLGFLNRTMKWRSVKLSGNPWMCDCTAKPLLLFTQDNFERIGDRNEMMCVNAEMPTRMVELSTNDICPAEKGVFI

[2] = target: the molecule itself; assay: SEC-SAXS + cryo-EM structure
[3] = target: B3; assay: cryo-EM structure
cryo-EM structure = target: the molecule itself; assay: cryo-EM structure

stoichiometry N (Toll per Spatzle (2:2)) [1]: 1
Molecule: insect cytokine ligand Spatzle (from UniProt P48607 26-326)

B1: photosynthetic AB-GAPDH, A2B2 hetero-tetramer (glyceraldehyde 3-phosphate dehydrogenase) from spinach (complex)
chain 1: KLKVAINGFGRIGRNFLRCWHGRKDSPLDVVVINDTGGVKQASHLLKYDSILGTFDADVKTAGDSAISVDGKVIKVVSDRNPVNLPWGDMGIDLVIEGTGVFVDRDGAGKHLQAGAKKVLITAPGKGDIPTYVVGVNEEGYTHADTIISNASCTTNCLAPFVKVLDQKFGIIKGTMTTTHSYTGDQRLLDASHRDLRRARAACLNIVPTSTGAAKAVALVLPNLKGKLNGIALRVPTPNVSVVDLVVQVSKKTFAEEVNAAFRESADNELKGILSVCDEPLVSIDFRCTDVSSTIDSSLTMVMGDDMVKVIAWYDNEWGYSQRVVDLADIVANKWQ
chain 2: KLKVAINGFGRIGRNFLRCWHGRKDSPLDVVVVNDSGGVKSATHLLKYDSILGTFKADVKIIDNETFSIDGKPIKVVSNRDPLKLPWAELGIDIVIEGTGVFVDGPGAGKHIQAGAKKVIITAPAKGSDIPTYVVGVNEKDYGHDVANIISNASCTTNCLAPFVKVLDEELGIVKGTMTTTHSYTGDQRLLDASHRDLRRARAAALNIVPTSTGAAKAVSLVLPQLKGKLNGIALRVPTPNVSVVDLVVNIEKVGVTAEDVNNAFRKAAAGPLKGVLDVCDIPLVSVDFRCSDFSSTIDSSLTMVMGGDMVKVVAWYDNEWGYSQRVVDLADLVANKWPGLEGSVASGDPLEDFCKDNPADEECKLYE
stoichiometry N [2]: 2 A2B2 tetramers per oligomer and 4 A2B2 tetramers per oligomer and 5 A2B2 tetramers per oligomer

binding result [3]: binds
B2: photosynthetic GAPDH A-subunit from spinach (natural protein, UniProt P19866 66-401, looked up)
chain: KLKVAINGFGRIGRNFLRCWHGRKDSPLDVVVINDTGGVKQASHLLKYDSILGTFDADVKTAGDSAISVDGKVIKVVSDRNPVNLPWGDMGIDLVIEGTGVFVDRDGAGKHLQAGAKKVLITAPGKGDIPTYVVGVNEEGYTHADTIISNASCTTNCLAPFVKVLDQKFGIIKGTMTTTHSYTGDQRLLDASHRDLRRARAACLNIVPTSTGAAKAVALVLPNLKGKLNGIALRVPTPNVSVVDLVVQVSKKTFAEEVNAAFRESADNELKGILSVCDEPLVSIDFRCTDVSSTIDSSLTMVMGDDMVKVIAWYDNEWGYSQRVVDLADIVANKWQ

Molecule: B3
binding result (cryo-EM structure): binds
